The record followed here is patent publication US20240425612A1 (published 2024).

By Kd is commonly meant the concentration at which binding is half-saturated. A low value points to tighter binding.

First the molecules themselves.
B1: Trastuzumab-MFc2 (antibody)
Fc: DKTHTCPPCPAPELPGGPSVFLFPPKPKDTLMISRTPEITCVVVDVSHEDPEVKFNWYVDGVEVHNAKTKPREEQYNSTYRVVSVLTVLHRDWLNGKEYKCKVSNKALPAPEEKTISKAKGQPREPQVYTLPPSRDELTKNQVSLTCLVKGFYPSDIVVEWESNGQPENNYKTTPPVLDSDGSFFLYSKLTVDKSRWQQGNVFSCSVLHEALHNHYTQKSLSLSPGK
B2: Trastuzumab-MFc5 (antibody)
Fc: B1 Fc with P15L, S19D, K28M, I39V, H48L, L89E, R91M, A110V, V158A
B3: Trastuzumab-MFc6 (antibody)
Fc: B1 Fc with S19D, I39V, D50Y, S78G, D136G, V158A
B4: Trastuzumab-MFc3 (antibody)
Fc: B1 Fc with P15L, S19D, I39V, H48L, A110V, V158A

Positions count from the first letter of the chain named.

Sequence of hFcγRIIIa-158V-streptavidin-His (P08637 17-208 F176V): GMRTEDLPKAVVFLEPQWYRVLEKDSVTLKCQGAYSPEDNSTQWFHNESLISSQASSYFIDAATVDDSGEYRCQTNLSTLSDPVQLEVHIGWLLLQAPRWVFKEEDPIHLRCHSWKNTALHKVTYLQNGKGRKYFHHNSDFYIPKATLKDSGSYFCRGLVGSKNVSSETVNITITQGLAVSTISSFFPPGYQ

In the first experiment the target is hFcγRIIIa-158F-streptavidin-His (human, UniProt P08637 17-208). Briefly: BLI.
Sequence of hFcγRIIIa-158F-streptavidin-His (P08637 17-208): as the sequence (P08637 17-208 F176V) above, with V160F counted along it
Molecule B1 gave a Kd of 0.0568 µM.
With B2, the affinity, expressed as Kd, was 0.0756 µM.
On the same count and under the same terms, then B3, with 0.0299 µM; and B4, with 0.0385 µM.

A further experiment concerns the target hFcγRIIIa-158V-streptavidin-His (human, UniProt P08637 17-208). Briefly: BLI. On the technique in general: Biolayer interferometry detects binding as a change in optical thickness at a sensor tip.
Molecule B1 came in with an equilibrium dissociation constant (Kd) of 0.0639 µM.
B2: the Kd is 0.085 µM.
As for B3, the Kd is 0.0289 µM. This Kd is about 2.9-fold lower than that of the molecule before.
Turning to B4, the dissociation constant (Kd) was found to be 0.0324 µM.
